For the assay, the target named is H3K9me0 peptide. Nature of the assay: FP. As to conditions: enzyme; modification not given.

B1: Full-length human G9a with an N-terminal MBP tag (MBP:FL-G9a), Q96KQ7 1-1210 (protein)
chain: AAAAGAAAAAAAEGEAPAEMGALLLEKETRGATERVHGSLGDTPRSEETLPKATPDSLEPAGPSSPASVTVTVGDEGADTPVGATPLIGDESENLEGDGDLRGGRILLGHATKSFPSSPSKGGSCPSRAKMSMTGAGKSPPSVQSLAMRLLSMPGAQGAAAAGSEPPPATTSPEGQPKVHRARKTMSKPGNGQPPVPEKRPPEIQHFRMSDDVHSLGKVTSDLAKRRKLNSGGGLSEELGSARRSGEVTLTKGDPGSLEEWETVVGDDFSLYYDSYSVDERVDSDSKSEVEALTEQLSEEEEEEEEEEEEEEEEEEEEEEEEDEESGNQSDRSGSSGRRKAKKKWRKDSPWVKPSRKRRKREPPRAKEPRGVNGVGSSGPSEYMEVPLGSLELPSEGTLSPNHAGVSNDTSSLETERGFEELPLCSCRMEAPKIDRISERAGHKCMATESVDGELSGCNAAILKRETMRPSSRVALMVLCETHRARMVKHHCCPGCGYFCTAGTFLECHPDFRVAHRFHKACVSQLNGMVFCPHCGEDASEAQEVTIPRGDGVTPPAGTAAPAPPPLSQDVPGRADTSQPSARMRGHGEPRRPPCDPLADTIDSSGPSLTLPNGGCLSAVGLPLGPGREALEKALVIQESERRKKLRFHPRQLYLSVKQGELQKVILMLLDNLDPNFQSDQQSKRTPLHAAAQKGSVEICHVLLQAGANINAVDKQQRTPLMEAVVNNHLEVARYMVQRGGCVYSKEEDGSTCLHHAAKIGNLEMVSLLLSTGQVDVNAQDSGGWTPIIWAAEHKHIEVIRMLLTRGADVTLTDNEENICLHWASFTGSAAIAEVLLNARCDLHAVNYHGDTPLHIAARESYHDCVLLFLSRGANPELRNKEGDTAWDLTPERSDVWFALQLNRKLRLGVGNRAIRTEKIICRDVARGYENVPIPCVNGVDGEPCPEDYKYISENCETSTMNIDRNITHLQHCTCVDDCSSSNCLCGQLSIRCWYDKDGRLLQEFNKIEPPLIFECNQACSCWRNCKNRVVQSGIKVRLQLYRTAKMGWGVRALQTIPQGTFICEYVGELISDAEADVREDDSYLFDLDNKDGEVYCIDARYYGNISRFINHLCDPNIIPVRVFMLHQDLRFPRIAFFSSRDIRTGEELGFDYGDRFWDIKSKYFTCQCGSEKCKHSAEAIALEQSRLARLDPHPELLPELGSLPPVNT
A word on the Kd: it is the free concentration of one partner at which half of the binding sites on the other are occupied at equilibrium, for simple one-to-one binding. Read a low Kd as higher affinity. With B1, the Kd stood at 66 µM.
